The source of these data is article PMC9505709, “Valorization of Biomasses from Energy Crops for the Discovery of Novel Thermophilic Glycoside Hydrolases through Metagenomic Analysis” (International Journal of Molecular Sciences, 2022).

This test has as its target Aglu1, α-glucosidase of family GH31 from an unknown hyperthermophilic archaeon (unknown hyperthermophilic archaeon (metagenome; family Sulfolobaceae, unclassified genus)). The experiment in a line: SEC; gel filtration on Superose 6 10/300, isocratic 20 mM Tris HCl pH 8.0; markers thyroglobulin, apoferritin, BSA, cytochrome C; native mass 462 kDa against 80 kDa for the monomer.

The substance “Aglu1, α-glucosidase of family GH31 from an unknown hyperthermophilic archaeon (enzyme)” registered a stoichiometry N of 6.
